Results on 4 sequences are retold here after patent publication US11879134.

Data set [1] deals with Type I-B Cas complex (Clo1313_2969-2976; Cas3, Cas5, Cas8, Cas6, DevR) (Clostridium thermocellum). Description: cell_activity.
Data set [2] relates to ThermoCas9. Kind of data set: cell_activity. The conditions noted are these: PAM NNNNCNAA; no cell killing observed.

Take “AUAAUGACAUUUAUGGUACUGUUGUGGUAAUAGACGA / CAGTTAATAATGACATTTATGGTACTGTTGTGGTAATAGACGA / TCGTCTATTACCACAACAGTACCATAAATGTCATTATTAACTG”: the activity in data set [1] (PAM 5'-CAGTTA, plasmid interference, strong spacer promoter, spacer sequence from Table 1 pTY series, scale: fold decrease in transformation efficiency) worked out at 10.

Sequence “CUUGAAGGCAUGAGGGUGUUUUAUGAAACUUGCAAAU / CTTGAAGGCATGAGGGTGTTTTATGAAACTTGCAAAT / ATTTGCAAGTTTCATAAAACACCCTCATGCCTTCAAG” returned an activity in data set [1] (no-PAM (GGC) control, target spacer gives 7 CFU/ug) of 18000 CFU/µg DNA.

“GCAUAUUUGUUCUGGUCAAG / GCATATTTGTTCTGGTCAAG / CTTGACCAGAACAAATATGC [ThermoCas9 sgRNA#1 spacer ; pyrF site, ThermoCas9 #1]” returned an activity (% cell killing) in data set [2] of 0.

On to “UGAGAUUGUUGCGGAGUAUGUUGAAUCAUGGGGUGAA / TGAGATTGTTGCGGAGTATGTTGAATCATGGGGTGAA / TTCACCCCATGATTCAACATACTCCGCAACAATCTCA [Type I-B pyrF target spacer ; pyrF site, Type I-B, PAM TTA]”, for which, in data set [1] (PAM 5'-TTA, strain LL1586, chromosomal pyrF, 65.8% with native cas promoter), the activity (% cell killing) stood at 99.8.
